Some results are limits rather than exact numbers.

The target of experiment [1] is p53 K382ac peptide (Homo sapiens) (UniProt P04637). Conditions: cited from earlier work.
The target in a further experiment is bromodomain (BD) of p300. As to the kind of experiment: NMR titration.
Experiment [2] has as its target tandem Tudor domain (TTD) of p53-binding protein 1 (53BP1), wild type (UniProt Q12888). Put plainly: other fluorescence titration + NMR titration.
Experiment [3] has the same target. Put plainly: other fluorescence titration.

As to CBP bromodomain (from UniProt Q92793), the Kd in experiment [1] was 187 µM. Turning to “p53K381ac peptide (p53 acetylated at K381) (from UniProt P04637 377-386)”, the Kd in the experiment with bromodomain (BD) of p300 was 241 µM; in experiment [2], greater than 5000 µM. As to “p53K381acK382me2 peptide (p53 acetylated at K381 and dimethylated at K382) (from UniProt P04637 377-386)”, the figures for the Kd (in experiment [3]; with bromodomain (BD) of p300) were 0.76 µM and 282 µM, respectively.

In general, Kd refers to a measure of binding affinity in units of concentration.

These data come from paper PMC4317571.
